Data on 36 sequences can be found in the supplement of paper PMC9732359.

± gives the uncertainty stated by the source.

The series in a line: protein stability index of a GFP-peptide fusion (yeast GPS) (PSI 1-4); higher = more stable; sorted into four equal gates, so the index is relative within each strain. The method in brief: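 Yeast carrying a pooled library were grown to mid-log phase in leucine-free medium. Each library plasmid expresses Cherry and has a tiled 17-residue yeast protein peptide fused downstream of GFP. Cells were sorted into four equal gates by GFP/Cherry ratio, and plasmids from each gate were PCR-amplified, Illumina-sequenced and assigned to strains by barcode. Summing, across gates, the read frequency times the gate number gave each peptide's protein stability index.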

NAQQTFHIDHTKPSDLT [RPO21]: the protein stability index was 2.85 ± 0.044 (doa10∆), 2.6 ± 0.042 (pdr5∆), 2.69 ± 0.048 (san1∆) and 2.82 ± 0.041 (ubr1∆).

On to NAQSKLSLTLNTHYHAD [SNF2], for which the protein stability index runs as follows: (doa10∆) 2.76 ± 0.096; (pdr5∆) 2.81 ± 0.11; (san1∆) 2.73 ± 0.13; (ubr1∆) 3.09 ± 0.085.

For the sequence NARIYNTEGSVVYEDSL [SNF2], the protein stability index turned out to be 3.1 ± 0.084 (doa10∆), 3.25 ± 0.085 (pdr5∆), 2.92 ± 0.11 (san1∆) and 3.25 ± 0.13 (ubr1∆).

For NAYGFIEWCSRCNDNLM [YJL039C/NUP192], the protein stability index is, setting by setting: (doa10∆) 3 ± 0.079; (pdr5∆) 2.54 ± 0.088; (san1∆) 2.75 ± 0.083; (ubr1∆) 2.24 ± 0.078.

For the sequence NDDALDLDLDLFDPDDF [MED4], the protein stability index was determined as 2.88 ± 0.045 (doa10∆), 3.04 ± 0.068 (pdr5∆), 2.81 ± 0.036 (san1∆) and 3.07 ± 0.032 (ubr1∆).

With NDDSSSMNATMRNFSKQ [YDL088C/ASM4], the protein stability index runs as follows: (doa10∆) 2.76 ± 0.087; (pdr5∆) 3.14 ± 0.11; (san1∆) 2.71 ± 0.13; (ubr1∆) 2.93 ± 0.091.

As for NDEPSHKKIKVAQPDSL [SIR2], the protein stability index runs as follows: (doa10∆) 2.32 ± 0.079; (pdr5∆) 2.31 ± 0.071; (san1∆) 1.63 ± 0.1; (ubr1∆) 3.19 ± 0.055.

On to NDINISSIENNINNNIN [MED2], for which the protein stability index amounted to 2.87 ± 0.044 (doa10∆), 3 ± 0.047 (pdr5∆), 2.86 ± 0.041 (san1∆) and 3.11 ± 0.039 (ubr1∆).

For the sequence NDLGKFIPNKQLNCVID [RPN7], the protein stability index stood at 2.49 ± 0.13 (doa10∆), 2.85 ± 0.19 (pdr5∆), 2.77 ± 0.17 (san1∆) and 3.05 ± 0.19 (ubr1∆).

Take NDLHHSEKKYAEEDQVQ [RPN3]: the protein stability index was 2.85 ± 0.1 (doa10∆), 3.3 ± 0.16 (pdr5∆), 2.99 ± 0.13 (san1∆) and 2.98 ± 0.21 (ubr1∆).

Regarding NDLVKARDLLDDLEKTL [RPN9], the protein stability index was found to be 2.97 ± 0.092 (doa10∆), 3.43 ± 0.097 (pdr5∆), 3.12 ± 0.091 (san1∆) and 3.15 ± 0.087 (ubr1∆).

With NDPSAEVRRAAMLNLIN [YCG1], the protein stability index was 3.42 ± 0.21 (pdr5∆) and 2.72 ± 0.26 (san1∆).

For the sequence NEKLECISLGSTKLSRP [ITC1], the protein stability index came to 2.25 ± 0.064 (doa10∆), 2.64 ± 0.052 (pdr5∆), 2.44 ± 0.047 (san1∆) and 2.47 ± 0.057 (ubr1∆).

Consider NENEDEDEGTLNVAEII [ARP9], for which the protein stability index reads like this: (doa10∆) 3.37 ± 0.13; (pdr5∆) 2.91 ± 0.14; (san1∆) 3.34 ± 0.072; (ubr1∆) 2.13 ± 0.12.

On to NENKVIIELPNEKFEIE [SRB4], for which the protein stability index is, setting by setting: (doa10∆) 2.89 ± 0.077; (pdr5∆) 2.86 ± 0.081; (san1∆) 2.94 ± 0.055; (ubr1∆) 2.8 ± 0.042.

In the case of NENNSNGGEDTSVENEG [REC8], the protein stability index (doa10∆) was 3.31 ± 0.14, the protein stability index (pdr5∆) was 3.44 ± 0.14, the protein stability index (san1∆) amounted to 3.05 ± 0.15 and the protein stability index (ubr1∆) worked out at 3.07 ± 0.089.

Consider NFAHSDSLSVPKVSAGD [SIR4], for which the protein stability index reads like this: (doa10∆) 2.95 ± 0.11; (pdr5∆) 2.98 ± 0.12; (san1∆) 2.76 ± 0.054; (ubr1∆) 3.27 ± 0.11.

Regarding NFALTTLIDLVKHSPGA [ECM29], the protein stability index was 1.61 ± 0.11 (doa10∆), 1.79 ± 0.071 (pdr5∆), 1.49 ± 0.15 (san1∆) and 2.13 ± 0.062 (ubr1∆).

NFEATKKSVLKQVQDFE [COR1]: the protein stability index was 2.76 ± 0.13 (doa10∆), 2.39 ± 0.25 (pdr5∆), 3.07 ± 0.15 (san1∆) and 2.91 ± 0.072 (ubr1∆).

As for NFETEWNLQTLAADDAF [RPB11], the protein stability index came to 2.68 ± 0.16 (doa10∆), 2.83 ± 0.13 (pdr5∆) and 2.54 ± 0.13 (ubr1∆).

As for NFLIKLSELSPGIMLRQ [YCS4], the protein stability index was determined as 2.77 ± 0.093 (doa10∆), 2.98 ± 0.1 (pdr5∆), 3.1 ± 0.094 (san1∆) and 2.95 ± 0.093 (ubr1∆).

Regarding NFPEASKLSEHLNHYIL [YCG1], the protein stability index is, setting by setting: (doa10∆) 2.53 ± 0.29; (pdr5∆) 2.51 ± 0.11; (san1∆) 2.66 ± 0.17; (ubr1∆) 2.53 ± 0.09.

As to NFRILKSFTNDKIPLNY [SRB5], the protein stability index came out at 2.94 ± 0.054 (doa10∆), 2.77 ± 0.057 (pdr5∆), 2.84 ± 0.04 (san1∆) and 2.91 ± 0.036 (ubr1∆).

Consider NFYRPLLRSVLVLLELV [YML103C/NUP188], for which the protein stability index is, setting by setting: (doa10∆) 1.23 ± 0.066; (pdr5∆) 1.21 ± 0.087; (san1∆) 1.18 ± 0.12; (ubr1∆) 1.06 ± 0.074.

In the case of NGEIKGENIDADNDGPR [SNF2], the protein stability index reads like this: (doa10∆) 3.07 ± 0.074; (pdr5∆) 3.48 ± 0.069; (san1∆) 3.49 ± 0.063; (ubr1∆) 3.08 ± 0.073.

With NGFHGRLGDLGVIDDSF [SMC4], the protein stability index (doa10∆) turned out to be 3.51 ± 0.17, the protein stability index (pdr5∆) was 3.35 ± 0.11, the protein stability index (san1∆) was found to be 3.11 ± 0.12 and the protein stability index (ubr1∆) was determined as 3.46 ± 0.057.

Where the note is “san1∆”, NGFMESAIVNEDGLLEG [SOH1] returned a protein stability index of 2.86 ± 0.23.

Regarding NGGSEEEITCALDYLIP [MED7], the protein stability index by setting is: (doa10∆) 3.45 ± 0.1; (pdr5∆) 3.45 ± 0.13; (san1∆) 3.44 ± 0.098; (ubr1∆) 3.35 ± 0.09.

For the sequence NGIPLKSKERSSQFVRL [YMR129W/POM152], the protein stability index runs as follows: (doa10∆) 2.75 ± 0.15; (pdr5∆) 2.6 ± 0.14; (san1∆) 3.22 ± 0.096; (ubr1∆) 2.85 ± 0.075.

On to NGKVQYFLRRQYILQIV [YJL039C/NUP192], for which the protein stability index is, setting by setting: (doa10∆) 1.42 ± 0.054; (pdr5∆) 1.56 ± 0.07; (san1∆) 1.33 ± 0.18; (ubr1∆) 1.45 ± 0.053.

As to NGLIISWSNGKITSPIR [RRP42], the protein stability index by setting is: (doa10∆) 3.12 ± 0.19; (pdr5∆) 2.98 ± 0.14; (san1∆) 3.2 ± 0.082; (ubr1∆) 3.39 ± 0.12.

Regarding NGNDESSEYETINISLS [NUT1], the protein stability index is, setting by setting: (doa10∆) 3.16 ± 0.12; (pdr5∆) 3.32 ± 0.2; (san1∆) 3.06 ± 0.12; (ubr1∆) 3.58 ± 0.25.

As for NGTLIGCVSYSPAALKQ [YMR153W/NUP53], the protein stability index is, setting by setting: (doa10∆) 1.85 ± 0.06; (pdr5∆) 2.27 ± 0.086; (san1∆) 1.83 ± 0.097; (ubr1∆) 2.26 ± 0.045.

NGVVKKAAAGAGSAALK [RPO31]: the protein stability index (doa10∆) came out at 3.51 ± 0.13, the protein stability index (pdr5∆) amounted to 3.11 ± 0.27 and the protein stability index (san1∆) worked out at 3.47 ± 0.12.

As for NHDRINISNNLQKALTV [RPN8], the protein stability index worked out at 3.17 ± 0.064 (doa10∆), 3.29 ± 0.062 (pdr5∆), 3.38 ± 0.038 (san1∆) and 3.27 ± 0.046 (ubr1∆).

Turning to NHLDELQKKFVTKQSEL [SMC1], the protein stability index runs as follows: (doa10∆) 2.59 ± 0.11; (pdr5∆) 3.06 ± 0.14; (san1∆) 2.35 ± 0.21; (ubr1∆) 2.72 ± 0.075.
